What was measured:
Assay in all cases: Antimicrobial activity of pepsin-treated E. coli displaying multimeric antimicrobial peptide complex
Format in all cases: cell-based
Details in all cases: pepsin-digested in SGF 30 minutes; E. coli BL21 (DE3) = 0%, synthesized Hinge2L = 100%; OD595
[1] = system: gram-positive Staphylococus aureus
Method: (§1) The antimicrobial effect of the E. coli strain, constructed in Example 4 and displaying the multimeric antimicrobial peptide complex on the cell surface, was measured. Specifically, the transformed E. coli BL21 (DE3) was cultured in 100 ml of LB medium, and when the culture medium reached an OD600 of 0.5-0.6, 0.2 mM IPTG was added thereto to induce the expression of the multimeric antimicrobial peptide complex linked to the cell surface anchoring motif. 4 hours after the induction of the expression, the medium was removed, and the cells were washed twice with NAPB (sodium phosphate buffer), and then resuspended in the same buffer. All the E. coli samples were adjusted to a cell number of 1×10^10 cfu/ml. Then, pepsin was dissolved in simulated gastric fluid (SGF) (0.084 N HCl, 35 mM NaCl, pH 1.2 or 2.0), and the E. coli cells were treated with the pepsin solution and incubated for 30 minutes. After the incubation, in order to deactivate pepsin and neutralize the pH, the same concentration of NaOH aqueous solution as that of the simulated gastric fluid was added to the cells, and the cell solution was centrifuged to remove cell debris other than the monomeric antimicrobial peptide digested by pepsin.
(§2) The antimicrobial activities of the pepsin-digested monomeric antimicrobial peptide against gram-positive Staphylococus aureus, gram-negative Escherichia coli and the yeast Saccharomyces cerevisiae were measured.
(§3) Each of the microbial strains was collected in the exponential growth phase during the culture, washed twice with NAPB, and then resuspended in the same buffer. The number of the microbial cells was adjusted to 1×10^5 cfu/ml. 10 μl of an aqueous solution containing each microbial strain and the pepsin-digested monomeric antimicrobial peptide was dispensed into each well of a 96-well plate, mixed well and incubated at 37° C. for 3 hours. After 3 hours, 2×TSB (Trypticase Soy Broth) medium was added to the cells which were then incubated at 37° C. for 12 hours, after which the absorbance at OD595 was measured.

[2] = system: gram-negative Escherichia coli
Method: as §1, §2, §3

[3] = system: yeast Saccharomyces cerevisiae
Method: as §1, §2, §3

B1: LH3: trimer of antimicrobial peptide Hinge2L linked to cell surface anchoring motif Lpp-OmpA, displayed on E. coli BL21 (DE3) (protein)
chain: MKATKLVLGNNNGPTHENQLGAGAFGGYQVNPYVGFEMGYDWLGRMPYKGSVENGAYKAQGVQLTAKLGYPITDDLDIYTRLGGMVWRADTKSNVYGKNHDTGVSPVFAGGVEYAITPEIATRGRLRVVRQWPIGRVVRRVVRRVVRLRVVRQWPIGRVVRRVVRRVVRLRVVRQWPIGRVVRRVVRRVVRL
modifications: displayed on E. coli BL21(DE3); DNA sequence of Lpp-OmpA-Hinge2L3
antimicrobial activity [1]: 17.95% | antimicrobial activity [2]: 30% | antimicrobial activity [3]: 33.17%
